Source: PMC5382158 (Frontiers in Cellular and Infection Microbiology, 2017)

Experiments:
Test in all cases: two-hybrid
[1] = target: NarI-T18 (M. tuberculosis)
[2] = target: T1, NarK2-T18 (M. tuberculosis, UniProt P9WJY7 1-395); details: partners not purified
T1 sequence: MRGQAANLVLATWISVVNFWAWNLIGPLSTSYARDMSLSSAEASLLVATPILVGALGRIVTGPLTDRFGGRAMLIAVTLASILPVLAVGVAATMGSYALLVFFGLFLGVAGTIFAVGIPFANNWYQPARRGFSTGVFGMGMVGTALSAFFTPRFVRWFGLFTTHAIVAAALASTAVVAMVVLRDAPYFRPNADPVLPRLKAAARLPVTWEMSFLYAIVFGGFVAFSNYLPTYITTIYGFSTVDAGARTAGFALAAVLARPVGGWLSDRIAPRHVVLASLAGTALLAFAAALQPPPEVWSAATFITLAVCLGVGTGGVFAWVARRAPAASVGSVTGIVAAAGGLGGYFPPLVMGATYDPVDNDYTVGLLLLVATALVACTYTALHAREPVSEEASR

[3] = target: T2, Rv2617c-T18 (M. tuberculosis, UniProt I6XER9 1-146); details: partners not purified
T2 sequence: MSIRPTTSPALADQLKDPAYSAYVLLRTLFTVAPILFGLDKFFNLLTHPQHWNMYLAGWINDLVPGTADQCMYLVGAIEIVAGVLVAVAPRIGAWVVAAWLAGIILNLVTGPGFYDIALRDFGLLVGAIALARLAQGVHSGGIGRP

## KdpF-T25 (peptide)
[1]
  β-galactosidase activity: 720 Miller units

## MTTVDNIVGLVIAVALMAFLFAALLFPEKF [KdpF-T25]
[2]
  β-galactosidase activity: 868 Miller units
[3]
  β-galactosidase activity: 1870 Miller units
